Drawing on paper PMC10360031, this text covers mean rupture force and binding probability (specific adhesion events) (% of force curves) for three substances.

The assay addresses cell-surface vimentin (CSV) on mouse embryonic fibroblasts mEF +/+ (mouse (endogenous in mEF)) (UniProt P20152). Kind of assay: AFM single-molecule force spectroscopy.

“South Africa B.1.135 RBD (from UniProt P0DTC2) (domain or fragment)” returned a mean rupture force at 5 um/s of 25.8 pN.
“wild-strain SARS-CoV-2 spike protein RBD (from UniProt P0DTC2) (domain or fragment)” showed a binding probability (specific adhesion events) (% of force curves) below 10.
The substance “Brazil P.1 RBD (from UniProt P0DTC2) (domain or fragment)” returned a mean rupture force at 5 um/s of 31.3 pN.
